From patent publication US20120015885A1 (published 2012)
Blank lines part the entries; values can stand above or below the binder they belong to.

Assays:
[1] = biological target: CaMKI; experiment: cell-based or functional assay
[2] = biological target: calcium/calmodulin (CaM)-dependent protein kinase II (CaMKII) (UniProt P11275 1-478); experiment: cell-based or functional assay
[3] = biological target: 2-chloro-(ε-amino-Lys75)-[6-(4-N,N-diethylaminophenyl)-1,3,5-triazin-4-yl]calmodulin (TA-CaM) (UniProt P0DP23 2-149); experiment: competition with CBD for TA-CaM, fluorescence
[4] = biological target: biotinylated CaM (UniProt P0DP23 2-149); experiment: slot blot with biotinylated CaM (FIG. 9E) and TA-CaM competition (FIG. 9G)

calcium/calmodulin (CaM)-dependent protein kinase II (CaMKII), sequence (P11275 whole entry): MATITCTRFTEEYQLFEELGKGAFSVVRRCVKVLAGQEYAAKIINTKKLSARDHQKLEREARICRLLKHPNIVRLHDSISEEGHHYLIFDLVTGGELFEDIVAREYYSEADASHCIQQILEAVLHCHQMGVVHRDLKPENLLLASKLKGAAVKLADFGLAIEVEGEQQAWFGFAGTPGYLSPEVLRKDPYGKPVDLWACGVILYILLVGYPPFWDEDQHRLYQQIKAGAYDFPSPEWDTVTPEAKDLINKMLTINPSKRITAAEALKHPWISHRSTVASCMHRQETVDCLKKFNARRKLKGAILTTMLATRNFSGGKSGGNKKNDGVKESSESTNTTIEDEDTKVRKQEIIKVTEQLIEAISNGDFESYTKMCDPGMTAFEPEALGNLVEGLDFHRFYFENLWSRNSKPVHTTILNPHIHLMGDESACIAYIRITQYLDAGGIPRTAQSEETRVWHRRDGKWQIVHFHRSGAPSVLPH

Binder: KRAPKLGQIGRVKAVVIED [CN19a2v]
IC50, CaMKI activity [1]: ~18000 nM | IC50, CaMKII activity towards syntide 2 [2]: ~20 nM | fold increase of potency against CN19 [2]: ~5 fold

B1: antCN27 (peptide)
peptide: RQIKIWFQNRRMKWKKRPPKLGQIGRSKRVVIEDDRIDDVLK
notes: a final (K) of ant was replaced by the first K of the CN peptide in the fusion
Kd [3]: ~1 nM

B2: ant (peptide)
peptide: RQIKIWFQNRRMKWK
notes: whether the free peptide had it is not clear; also called ant peptide; penetratin
Kd [3]: ~5 nM

Binder: KRAPKLGQIGRQKAVVIED [V12Q mutant of CN19a2v]
IC50, CaMKII activity [2]: ~1 nM

Binder: KRPPKLGQIGRSKRVVIEDDRIDDVLK (also called CaM-KIINtide) [CN27]
binding result [4]: no binding

Results, then the binder that gave them:

IC50, CaMKI activity [1]: ~38000 nM | IC50, CaMKII activity [2]: ~0.75 nM | fold increase of potency against CN19 [2]: > 125 fold | selectivity for CaMKII vs CaMKI [2]: ~50000 fold
Binder: KRAPKLGQIGRQKAVDIED [CN19o]

IC50, phosphorylation of syntide 2 by CaMKII [2]: ~100 nM
Binder: KRPPKLGQIGRSKRVVIEDD [CN20]

IC50, CaMKI activity [1]: ~36000 nM | IC50, phosphorylation of syntide 2 by CaMKII [2]: ~100 nM
Binder: KRPPKLGQIGRSKRVVIED [CN19]

IC50, phosphorylation of syntide 2 by CaMKII [2]: ~100 nM
Binder: KRPPKLGQIGRSKRVVIEDDR [CN21]

IC50, CaMKII activity [2]: ~1 nM
Binder: KRAPKLGQIGRVKAVDIED [V16D mutant of CN19a2v]

IC50, CaMKII activity [2]: < 10 nM | fold increase of potency against CN19 wild type [2]: > 10 fold
Binder: KRPPKLGQIGRSKAVVIED [CN19 R14A]
